B1: Eap23 (Eap fragment of domains 2 and 3) (domain or fragment)
chain: ANVQVPYTITVNGTSQNILSNLTFNKNQNISYKDLEGKVKSVLESNRGITDVDLRLSKQAKYTVNFKNGTKKVIDLKSGIYTANLINSSDIKSININVDTKKHIENKAKRNYQVPYSINLNGTSTNILSNLSFSNKPWTNYKNLTSQIKSVLKHDRGISEQDLKYAKKAYYTVYFKNGGKRILQLNSKNYTANLVHAKDVKRIEITVKTGTKAKADRYV
B2: Eap12 (Eap fragment of domains 1 and 2) (domain or fragment)
chain: GHSNIQIPYTITVNGTSQNILSSLTFNKNQNISYKDIENKVKSVLYFNRGISDIDLRLSKQAEYTVHFKNGTKRVIDLKSGIYTADLINTSDIKAISVNVDTKKQPKDKAKANVQVPYTITVNGTSQNILSNLTFNKNQNISYKDLEGKVKSVLESNRGITDVDLRLSKQAKYTVNFKNGTKKVIDLKSGIYTANLINSSDIKSININVDTKKHIENKAKR
B3: Eap34 (Eap fragment of domains 3 and 4) (domain or fragment)
chain: NYQVPYSINLNGTSTNILSNLSFSNKPWTNYKNLTSQIKSVLKHDRGISEQDLKYAKKAYYTVYFKNGGKRILQLNSKNYTANLVHAKDVKRIEITVKTGTKAKADRYVPYTIAVNGTSTPILSKLKISNKQLISYKYLNDKVKSVLKSERGISDLDLKFAKQAKYTVYFKNGKKQVVNLKSDIFTPNLFSAKDIKKIDIDVKQYTKSKKK

What was measured:
biotinylated C4b [1] = molecular target: T1, biotinylated C4b (human, biotin through Maleimide-PEG2-Biotin (residue not stated)); assay: AlphaScreen or HTRF
biotinylated C4b [2] = molecular target: T1, biotinylated C4b; assay: SPR

| Binder | Kd (biotinylated C4b [1]) [nM] | fold weaker binding than Eap (biotinylated C4b [1]) [fold] | IC50 (biotinylated C4b [2]) [nM] |
| --- | --- | --- | --- |
| B1 | 293 ± 38 |  |  |
| B2 |  | ~100 |  |
| B3 | 525 ± 65 |  | ~870 |

From paper PMC4258549 (Journal of immunology (Baltimore, Md. : 1950), 2014)
